Test results as given in a protein production outcome set (Wang et al. 2014).

assay: label from the status in PepcDB records

**Q.** Which protein production does the source give for “NAMVLREDIDKLKLLAQQFEQELQAYNTRIGNLETRIAYLEDRQFSVTTKLTGDSIWVLSGVGGSEQADGPPDQPVQNGEVTVNFRQRINFNTSFSGEDNLLIRLQSANFFLARGGSNLTDFNFAATEEQGNVNINKMQYSFPVGDRARIWLAGNRITMDDIMDPLAPYTNSFTDGAVSFFGAIAPIYLPNDNSGPGAGFSYNFTDDLSLGGFYSAGKGFSPNQSEGLFNGQFGVGAQLNYVPAANTGVAFSYLHNYIPQGQYDSFSALGYTGLANTDNPFDDAASSTNHYAVIWTWQLADWFSLEGWGMYSDATAKSGDRQGDTADIWNWKVSLAFPDLGKEGNVGVVSVGQPPYASFISNNNNVPDITPATTDAPWFVETFYLYQFNDNISLTPAFWIGINPANGRDPLWVAALRTSFKF” here?
**A.** failed

**Q.** For “NANDQAIAYVMLGNKAQTVLNGNLKVDFMETENSSSVKKQKALVAKVSQREEMVKKCLGELTEVCKSLGKVFGVHYFNIFNTVTLKKLAESLSSDPEVLLQIDGVTEDKLEKYGAEVISVLQKYSEWTSPAED”, which protein production is on record?
**A.** failed

**Q.** Which protein production does the source give for “NANLDPKTRVLEHRLLAASSAIAEKLGVSAGDEVLLIRRLRSTGDIPVAILENYLPPAFNDVSLDELEKGGLYDALRSRGVVLKIANQKIGARRAVGEESTLLDIEDGGPLLTVERVALDNSGQVIELGSHCYRPDMYN” here?
**A.** failed

**Q.** With “NDTELPTYRVVSRLSLDDLIETIDEDLDREIEFSEEILDQVDTVGGLIAFEKGRIPLPGTTVTTSGLQLQAEGGRDRRGRIQVRSVLVSVLPVESLSEL” as the sequence, how does the protein production read?
**A.** failed

**Q.** For “NIESIENLQGIRALQQQAPQLLSSGLPNEQQFSLLKQAGVDVVINLMPDSSKDAHPDEGKLVTQAGMDYVYIPVDWQNPKVEDVEAFFAAMDQHKGKDVLVHCLANYRASAFAYLYQLKQGQNPNMAQTMTPWNDELAIYPKWQALLTEVSAKYGH”, which protein production is on record?
**A.** not failed

**Q.** With “NILKIRCAPVTWPIGMGKNFKGVYHILNDEIYLFEAGGERLPHEFDIIKGIDNPELEQRFPLEIQQLRDEIELVQAASNEFNLDEFLAGELTPVFFGSAINNFGIQEILNSLIDWAPAPKPRDATVRMVEPDEPKFSGFIFKIQANMDPKHRDRIAFLRVCSGKFERGMKMKHLRINREIAASSVVTFMSHDRELVEEAYAGDIIGIPNHGNIQIGDSFSEGEQLAFTGIPFFAPELFRSVRIKNPLKIKQLQKGLQQLGEEGAVQVFKPMSGADLILGAVGVLQFEVVTSRLANEYGVEAVFDSASIWSARWVSCDDKKKLAEFEKANAGNLAIDAGGNLAYLAPNRVNLGLTQERWPDIVFHETREHSVKL” as the sequence, how does the protein production read?
**A.** failed

**Q.** Which protein production does the source give for “NILSLLLHPRLGAVIQQMLEMPGHAWTVESLASIAHMSRASFAQLFRDVSGTTPLAVLTKLRLQIAAQMFSRETLPVVVIAESVGYASESSFHKAFVREFGCTPGEYRERVRQLA” here?
**A.** not failed

**Q.** Which protein production does the source give for “NKDNLDLAGLTSLLSEKIKEFLQEKKMQSFYQQELETVESLQSLASRPVTHSTGSDQVELKDSGTSGVAQRVFKNALQLLQEKGLVFQRDSGSDKLYYVTTKDKDLQ” here?
**A.** not failed

**Q.** With “NKELNELNIIKLTRMMYYGQLLHYLSIGLTLVMTYSCNLRCPYCYEGDIKSKGGLLTREKIETILTFASAHAQGDKKPTISVSFYGGEPLLNWKGCEYTLQRLEEMKENKEIRDYSAGFVTNGTLINEDIVDAINNYNVYSMQITLDGPKEIHDKRRIKSNGEGTFDQIIENIKLLNRRIANKNFHLALRINVDKTNYKKIPELLDFLKDEGLGGIPISYGIVRGNLPYCSSNCGVYFSGSDLQKYLPYLWKEAYRRGFEVWTRPNL” as the sequence, how does the protein production read?
**A.** failed

**Q.** With “NLMKRCTRGFRKLGKCTTLEEEKCKTLYPRGQCTCSDSKMNTHSCDCKSC” as the sequence, how does the protein production read?
**A.** not failed

**Q.** For “NQLSGLHSMEEQLAKKLQIKKCLVVQGDSDDTPWVREEMGRVAVEQLDMALTEKRNIVAVMGGSTMATVAEMMTTDFAKGRELLFVPGRGGIGEDLDNQANTICDKMATKTNTKHRVLYVPEQLGEEAYRSLLKEPAIQEGLRLVQSANAIILGIGDALAMAKRRHTGEDVLEKIIRRKAVGEAFGYYFDEQGEVVHKVPTFGLQFEDLAQIPHIIAVAGGTSKAKAIKSYMKSAPKNTILITDEGAAKSLLK”, which protein production is on record?
**A.** not failed

**Q.** Which protein production does the source give for “NSVNCDELGPLPPGWEVRSTVSGRIYFVDHNNRTTQFTDPRLHHIMNHQCQLKEPSQPLPLPS” here?
**A.** failed

**Q.** With “PAGVMIADAASGKLVLTNEQAKQILRYQFEDSLELKEYAPVTPFAAFRCDGQPYDPYEYPLPRSLLTGEVISQEEMLLRWEDNSHIFISVNSAPILDSQGQIAAAAIVFQDVTERKHLESELQQREQEFKMVAENAP” as the sequence, how does the protein production read?
**A.** failed

**Q.** For “PAKWKRGRPDILHVALLTTTDSPLYNEGLLRIYFQVYDGRLFEVGTGVRVPKNYERFRGLVAQLLKTERVPPGEGEALIRLHSRSLAEFVEREGRFILMWEKGSPTTTTYVAARALSTGLPIGVGCFPRGEFKRSTLRKASEAYSIMGGAPLKTWGVASRIVYALER”, which protein production is on record?
**A.** failed

**Q.** Which protein production does the source give for “PCYENKFAPRCARCSKTLTQGGVTYRDQPWHRECLVCTGCQTPLAGQQFTSRDEDPYCVACFGELFA” here?
**A.** not failed

**Q.** For “PDAARKAQILWCQPDRAKAWTDWMRKGKFPVGGSICDNPVAETTSLGEQFGFNGTPTLVFPNGRSQSGYSPMPQLEEIIRKNQ”, which protein production is on record?
**A.** not failed

**Q.** Which protein production does the source give for “PDTIIAVDRDHRIIYVNRAMPGHKKTLAVGDHLCDHIMQPYHDRYHHTIERVIVTGKTAVLECELVVSPEETIELESRFAPCFLNGEVTSVVMLSVDITERKGMELELKKTLIDLERFNRVMVGRELRNIELKKRIASLQNDLVLSSGNAQASDDSRQDFATEDEDCAGIHHGDGFEEACDEVQYRKQQRMALLNLIEDANLARNELLETNRKLEESVIRTQEMARAASKANEAKSQFLANMSHEVRTPMNGVIGMSDLLLDTS” here?
**A.** failed

**Q.** For “PEQIWAKQQKDGSWLMDALIPLNELKYKLGLTTIEGEESEGFQTLNGFLTWWLGRLPHAGELVDYEGWQFEVLNVKHHRIVQVKVSRET”, which protein production is on record?
**A.** failed

**Q.** For “PFKESQARGLLQDNMANGYNGEDFESGLLELSKEIFPTNKYLYQDGQYLDKKTINAYLDPKYTKKEIDKMSEKEKKSKNANENLGLNPSHNGETDEEKIAKNSPAYLSNILEQDFYGNSDSKGKNIKGMTIGLAMNSVYYYKKEKDGETFSKDLSDKEIEKQGKQMASEMLSRLRENSDLKDIPIHFAIYKQSSQDSITPGEFIVGTTVEEGKTKINSWDNINEKAALIPSSTAADYDETLNNNFKQFNDNLQSYFSNFTQAVGKVKFVNKKAKQLTVDLPIDYYGQAETIGITQYVTEQAEKYFDKLDEYEIRIKDGNTPRALISKTKDDKEPQVHIYHN”, which protein production is on record?
**A.** not failed

**Q.** For “PGQVIGLFGGSFDPPHAGHVHVTREALKMFGLDRVWWLVTPGNPLKAHGPAPLDRRMEAARAMMRHPRVDVTDIEAHLGTRVTADTIAALRRIYPRVRFVWLMGADNLAQLHRWKDWRQIIETVPVGVLARPGDRISARMSPAARAYAPYRIDGQARHLLGRAEAPAWCFVNVPMVDVSSTRIRAAGGWSAAQQGR”, which protein production is on record?
**A.** failed

**Q.** With “PINVRVTTMDAELEFAIQPNTTGKQLFDQVVKTVGLREVWFFGLQYVDSKGYSTWLKLNKKVTQQDVKKENPLQFKFRAK” as the sequence, how does the protein production read?
**A.** failed

**Q.** Which protein production does the source give for PKQRCRAPACDHFGNAKCNGYCNECFQFKQMYG here?
**A.** not failed

**Q.** With “PLADTRFLQRRRALSAQLAAKRIDAMLVTHLTHIRYLSGFTGSNAALIINKDLSARISTDGRYITQIAEQVPDIESLMARNCAPALLSDINGPKRVGFEADYLSVSQCEELRKSAGSDVELIPVTGAIEKLR” as the sequence, how does the protein production read?
**A.** not failed

**Q.** With “PLTTHNMNSSTSNKVALNAAREGIVLLKNQGDLLPLDKQKVKKIAVVGTLAKYAPPTGFGSANVMASHYVSELSGLQQMAPNAKVEFIDGLSLDPSTSAWNTTDAAGNSVQGMKVEYFSNTNWSGDAAVTRTEQHVDLDWANDKNLPFESNTSTSDPYTTKGSTAGELNGDTSSTSIRYTGKITPTQSGEQVFKVRADGAVRLWVNGKKIIDNGDGKPLPGNSIPPTIPEFAKINLEAGQSYDVKLEYSRRAGYLSTMGGLVGVQLSSASLNAPQDLSGYDAVVVAVGNSNEYEGEGFDHSFDLPEFQNELIQNIAKVNPNTVVTMYGGTGLKMSDWIEQVPVALHAFYPGQNGGQALAEILFGKINPSGKLPISIERNIEDNPAYASFPKFDNQNTLAEMDYKDDLMLGYRGYEKKGIKPLYPFGYGL” as the sequence, how does the protein production read?
**A.** failed

**Q.** Which protein production does the source give for “PNFEKMKKEVEEILYNLKKEGGKYHCILAFSGGKDSVLALKLLKEKFKLNPLCVMVDNKYMAKEAIENALNVTKHYQVDLMILNRDYTDLFEDAIKRGESPCRRCSRLILREVWRVTKLLGLKYIITGHELP” here?
**A.** not failed

**Q.** With “PNFSHWGPPRIVEIFREPNVSLGISIVGGQTVIKRLKNGEELKGIFIKQVLEDSPAGKTNALKTGDKILEVSGVDLQNASHSEAVEAIKNAGNPVVFIVQSLSSTPRVIP” as the sequence, how does the protein production read?
**A.** not failed

**Q.** Which protein production does the source give for “PNILYKIDNQYPYFTKNEKKIAQFILNYPHKVVNMTSQEIANQLETSSTSIIRLSKKVTPGGFNELKTRLSKFLPKEVTQYNVELVDNESTISLKNKLHSRSKAAL” here?
**A.** not failed

**Q.** With “PRLYKEPSAKSNKFIIHNALSHCCLAGKVNEPQKNRILEEIEKSKANHFLILFRDSSCQFRALYTLSGETEELSRLAGYGPRTVTPAMVEGIYKYNSDRKRFTQIPAKTMSMSVDAFTIQGHLWQSKK” as the sequence, how does the protein production read?
**A.** not failed

**Q.** For “PRRWPILLIFPGSGFIQMTEREAEPIALAFSAQGYQTMVVEYNLLDRGPVYPNAIDVGLTALKYAKNQGPPHYGDANKTILMGFSAGSHVAALTNAMGNNTEYLKTHGFGDSPLTSRLQVLGYPVIDLAAGFPKSREEAFKISPDEQYWASQNLVTDQTPPTFLWNTCADAVVPTMNSLLYAEALARHHVEYDIHTFTHGKHGLCLSTVETSRYNYPEDIEPRAANWVPLVLSWLSEMLD”, which protein production is on record?
**A.** failed

**Q.** For “PSKKYVVDIWSDFVCPWCWIAKRRFENALNRSGMQDDVQVNVRAYRLAANQAPEPMIGALKRKLGNPASADSMMSTVSKYGRADGLDYRFDTMMFGDTADAHILVKAVEDTAVKKRLVEALYEQSTSHGRSLFDRSSLEAIAREVGVSDESIQLAWSSVELRNEMKDDESFAAQLGSGVPLFVFDSSFSVSGAQPDAVFLEALNKMVANSNPE”, which protein production is on record?
**A.** not failed

**Q.** With “PSVQVPQSTILYASDGSKLGETNYGEKRYWVPLKDMNPTIVKATVAIEDQNFYDHHGFDYKRMAGAALADLKAFAKVQGASTITQQYARNLYLEHDKTWKRKWNEAFYTIRLEQNYSKDEILEGYLNTIYYGHGAYGIEAASRLYFGKHAKNLTDAEAALLAGIPKGPSGY” as the sequence, how does the protein production read?
**A.** failed

**Q.** Which protein production does the source give for “QAQITGRPEWIWLALGTALMGLGTLYFLVKGMGVSDPDAKKFYAITTLVPAIAFTMYLSMLLGYGLTMVPFGGEQNPIYWARYADWLFTTPLLLLDLALLVDADQGTILALVGADGIMIGTGLVGALTKVYSYRFVWWAISTAAMLYILYVLFFGFTSKAESMRPEVASTFKVLRNVTVVLWSAYPVVWLIGSEGAGIVPLNIETLLFMVLDVSAKVGFGLILLRSRAIFGEAEAPEPSAGDGAAATS” here?
**A.** not failed

**Q.** With “QEYILALADVPSSPYGVKIIELSQTTAKVSFNKPDSHGGVPIHHYQVDVKEVASEIWKIVRSHGVQTMVVLNNLEPNTTYEIRVAAVNGKGQGDYSKIEIFQTLPV” as the sequence, how does the protein production read?
**A.** not failed

**Q.** For “QGKLLELVTFVPTEYADAVRQALWQAGAGRLGHYDCCSFSHAGTGTFRAAEGANPFVGAISELHHEAEERISLVLPAYRQGTVLQALHAAHPYELPAVSLIPLANDHPSAGGGIVGDLPSPISEREMLLHIKEVFGLKVLSHSAWRERPLRRMAICGGSGAFMWRRAAQEGADLFLTGEAKYNDFFDAGEHLLLVTIGHYESEEVANELFMRIISQKFPTFATHKSSVATNPVNYL”, which protein production is on record?
**A.** failed
